In PMC2779590 (2009):

Target: α5β1 integrin (Homo sapiens, UniProt P08648)
Assay: SPR

α5β1 integrin, sequence (P08648 42-1049, chain 1 of 2): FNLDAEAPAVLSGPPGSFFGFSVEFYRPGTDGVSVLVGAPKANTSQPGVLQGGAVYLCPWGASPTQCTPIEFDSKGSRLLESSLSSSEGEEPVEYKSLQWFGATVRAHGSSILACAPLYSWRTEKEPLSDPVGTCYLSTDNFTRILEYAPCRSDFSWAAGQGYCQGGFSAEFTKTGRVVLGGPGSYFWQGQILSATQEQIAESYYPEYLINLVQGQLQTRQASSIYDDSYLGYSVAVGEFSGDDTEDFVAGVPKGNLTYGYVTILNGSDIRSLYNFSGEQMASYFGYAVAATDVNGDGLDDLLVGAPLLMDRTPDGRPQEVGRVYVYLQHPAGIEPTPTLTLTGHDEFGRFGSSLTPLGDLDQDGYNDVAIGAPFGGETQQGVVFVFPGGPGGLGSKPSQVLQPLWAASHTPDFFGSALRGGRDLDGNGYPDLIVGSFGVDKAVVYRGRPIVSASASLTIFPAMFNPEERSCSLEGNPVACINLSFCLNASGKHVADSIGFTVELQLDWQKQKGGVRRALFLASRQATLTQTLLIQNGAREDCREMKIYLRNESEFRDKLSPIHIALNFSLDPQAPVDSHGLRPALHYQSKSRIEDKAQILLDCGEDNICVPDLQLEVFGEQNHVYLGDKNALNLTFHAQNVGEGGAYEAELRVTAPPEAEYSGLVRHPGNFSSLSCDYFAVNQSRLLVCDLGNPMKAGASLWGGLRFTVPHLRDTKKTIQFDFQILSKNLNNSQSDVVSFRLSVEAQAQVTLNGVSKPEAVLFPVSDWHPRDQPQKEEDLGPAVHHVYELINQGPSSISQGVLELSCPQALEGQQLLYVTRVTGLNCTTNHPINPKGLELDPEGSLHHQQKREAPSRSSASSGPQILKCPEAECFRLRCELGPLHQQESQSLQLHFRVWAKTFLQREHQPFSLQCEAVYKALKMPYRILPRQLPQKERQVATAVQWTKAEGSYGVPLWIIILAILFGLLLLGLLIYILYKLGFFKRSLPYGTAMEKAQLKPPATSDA
α5β1 integrin, sequence (chain, as listed by the source, chain 2 of 2): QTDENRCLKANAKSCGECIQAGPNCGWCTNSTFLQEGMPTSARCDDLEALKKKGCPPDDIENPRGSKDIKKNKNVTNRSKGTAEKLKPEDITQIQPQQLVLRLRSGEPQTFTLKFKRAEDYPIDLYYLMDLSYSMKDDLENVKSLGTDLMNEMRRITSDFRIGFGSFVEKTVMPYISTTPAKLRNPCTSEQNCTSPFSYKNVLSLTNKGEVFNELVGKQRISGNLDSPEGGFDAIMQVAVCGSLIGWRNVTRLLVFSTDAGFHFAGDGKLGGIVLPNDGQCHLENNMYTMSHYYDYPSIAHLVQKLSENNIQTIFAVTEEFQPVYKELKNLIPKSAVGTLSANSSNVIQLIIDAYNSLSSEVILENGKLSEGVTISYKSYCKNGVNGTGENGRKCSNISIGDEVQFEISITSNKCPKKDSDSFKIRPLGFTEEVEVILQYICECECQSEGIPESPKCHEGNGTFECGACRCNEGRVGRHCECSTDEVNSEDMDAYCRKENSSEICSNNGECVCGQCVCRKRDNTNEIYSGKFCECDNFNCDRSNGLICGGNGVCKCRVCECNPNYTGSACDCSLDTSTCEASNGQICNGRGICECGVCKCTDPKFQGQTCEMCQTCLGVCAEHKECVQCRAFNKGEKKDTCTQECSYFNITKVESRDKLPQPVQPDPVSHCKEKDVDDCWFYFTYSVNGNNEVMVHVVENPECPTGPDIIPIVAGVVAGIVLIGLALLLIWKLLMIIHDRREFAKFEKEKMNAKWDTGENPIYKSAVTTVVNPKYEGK

B1: CagA (protein)
chain: MTNETIDQTRTPDQTQSQTAFDPQQFINNLQVAFIKVDNVVASFDPDQKPIVDKNDRDNRQAFDGISQLREEYSNKAIKNPTKKNQYFSDFIDKSNDLINKDNLIDVESSTKSFQKFGDQRYQIFTSWVSHQKDPSKINTRSIRNFMENIIQPPIPDDKEKAEFLKSAKQSFAGIIIGNQIRTDQKFMGVFDESLKERQEAEKNGGPTGGDWLDIFLSFIFNKKQSSDVKEAINQEPVPHVQPDIATTTTDIQGLPPEARDLLDERGNFSKFTLGDMEMLDVEGVADIDPNYKFNQLLIHNNALSSVLMGSHNGIEPEKVSLLYAGNGGFGDKHDWNATVGYKDQQGNNVATLINVHMKNGSGLVIAGGEKGINNPSFYLYKEDQLTGSQRALSQEEIRNKVDFMEFLAQNNTKLDNLSEKEKEKFQNEIEDFQKDSKAYLDALGNDRIAFVSKKDTKHSALITEFNNGDLSYTLKDYGKKADKALDREKNVTLQGSLKHDGVMFVDYSNFKYTNASKNPNKGVGATNGVSHLEAGFNKVAVFNLPDLNNLAITSFVRRNLENKLTAKGLSLQEANKLIKDFLSSNKELAGKALNFNKAVAEAKSTGNYDEVKKAQKDLEKSLRKREHLEKEVEKKLESKSGNKNKMEAKAQANSQKDEIFALINKEANRDARAIAYTQNLKGIKRELSDKLEKISKDLKDFSKSFDEFKNGKNKDFSKAEETLKALKGSVKDLGINPEWISKVENLNAALNEFKNGKNKDFSKVTQAKSDLENSVKDVIINQKVTDKVDNLNQAVSVAKAMGDFSRVEQVLADLKNFSKEQLAQQAQKNEDFNTGKNSELYQSVKNSVNKTLVGNGLSGIEATALAKNFSDIKKELNEKFKNFNNNNNGLKNSTEPIYAKVNKKKTGQVASPEEPIYTQVAKKVNAKIDRLNQIASGLGGVGQAAGFPLKRHDKVDDLSKVGLSASPEPIYATIDDLGGPFPLKRHDKVDDLSKVGRSRNQELAQKIDNLNQAVSEAKAGFFGNLEQTIDKLKDSTKKNVMNLYVESAKKVPASLSAKLDNYAINSHTRINSNIQNGAINEKATGMLTQKNPEWLKLVNDKIVAHNVGSVSLSEYDKIGFNQKNMKDYSDSFKFSTKLNNAVKDIKSGFTHFLANAFSTGYYCLARENAEHGIKNVNTKGGFQKS
- Kd: 0.15 nM
